Test results as given in article PMC4894640.

Biological target: F-actin (polymerized non-muscle actin) (UniProt P60709)
Experiment: co-sedimentation; as the F-actin co-sedimentation, with in vitro synthesized HA-RAB-10(Q68L) (control: HA-only) added to the mixture

## GST-EHBP-1(260-901aa) (domain or fragment)
  increase of co-sedimentation with HA-RAB-10(Q68L) against without: 67%
